Assay results taken from the supplement of paper PMC9112550, “Optimization of the antimicrobial peptide Bac7 by deep mutational scanning” (BMC Biology, 2022).

What follows are sequences tested on Escherichia coli TOP10 (assay: shrunken log2 fold change of peptide-encoding DNA abundance (4.5 h post-induction vs induction); higher = less antimicrobial activity (less host growth inhibition)). Conditions: time post-induction: 4.5 h; library: site-saturation at positions 5, 18, 19, 20.
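Also: peptides expressed intracellularly from a pBAD plasmid library in pooled LB shake-flask culture, induced with 0.3% L-arabinose, DNA abundance read by NGS, three biological replicates, DESeq2 with apeglm shrinkage.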

Sequence	shrunken log2 fold change
RRIRARPPRLPRPRPRPLGDPRP	0.281
RRIRARPPRLPRPRPRPLIAPRP	0.504
RRIRARPPRLPRPRPRPLIMPRP	-0.144
RRIRARPPRLPRPRPRPLINPRP	0.0648
RRIRARPPRLPRPRPRPLKQPRP	0.469
RRIRARPPRLPRPRPRPLKVPRP	-0.0599
RRIRARPPRLPRPRPRPLLKPRP	0.0989
RRIRARPPRLPRPRPRPLMKPRP	0.106
RRIRARPPRLPRPRPRPLMPPRP	0.197
RRIRARPPRLPRPRPRPLNQPRP	-0.0348
RRIRARPPRLPRPRPRPLPVPRP	0.174
RRIRARPPRLPRPRPRPLQEPRP	0.604
RRIRARPPRLPRPRPRPLQMPRP	0.629
RRIRARPPRLPRPRPRPLQPPRP	0.583
RRIRARPPRLPRPRPRPLRHPRP	0.619
RRIRARPPRLPRPRPRPLSQPRP	0.263
RRIRARPPRLPRPRPRPLSRPRP	0.203
RRIRARPPRLPRPRPRPLTEPRP	0.608
RRIRARPPRLPRPRPRPLTTPRP	0.463
RRIRARPPRLPRPRPRPLWPPRP	0.646
RRIRARPPRLPRPRPRPMALPRP	0.272
RRIRARPPRLPRPRPRPMAVPRP	0.209
RRIRARPPRLPRPRPRPMCTPRP	-0.0696
RRIRARPPRLPRPRPRPMGSPRP	0.0355
RRIRARPPRLPRPRPRPMHPPRP	0.362

Sequence	shrunken log2 fold change
RRIRARPPRLPRPRPRPMITPRP	0.312
RRIRARPPRLPRPRPRPMMWPRP	0.617
RRIRARPPRLPRPRPRPMPTPRP	0.866
RRIRARPPRLPRPRPRPMQQPRP	0.281
RRIRARPPRLPRPRPRPMREPRP	0.844
RRIRARPPRLPRPRPRPMSNPRP	-0.433
RRIRARPPRLPRPRPRPMSQPRP	0.235
RRIRARPPRLPRPRPRPMSTPRP	-0.0262
RRIRARPPRLPRPRPRPMSWPRP	0.399
RRIRARPPRLPRPRPRPMTDPRP	-0.414
RRIRARPPRLPRPRPRPMVAPRP	0.676
RRIRARPPRLPRPRPRPMVYPRP	-0.0537
RRIRARPPRLPRPRPRPMWHPRP	0.131
RRIRARPPRLPRPRPRPMWVPRP	-0.0205
RRIRARPPRLPRPRPRPMYPPRP	-0.79
RRIRARPPRLPRPRPRPNAVPRP	0.0101
RRIRARPPRLPRPRPRPNDVPRP	0.128
RRIRARPPRLPRPRPRPNFLPRP	0.0215
RRIRARPPRLPRPRPRPNGDPRP	0.147
RRIRARPPRLPRPRPRPNGNPRP	-0.191
RRIRARPPRLPRPRPRPNGQPRP	0.208
RRIRARPPRLPRPRPRPNKDPRP	-0.294
RRIRARPPRLPRPRPRPNLFPRP	-0.0329
RRIRARPPRLPRPRPRPNMYPRP	-0.38
RRIRARPPRLPRPRPRPNNPPRP	0.0346

Sequence	shrunken log2 fold change
RRIRARPPRLPRPRPRPNPTPRP	1.11
RRIRARPPRLPRPRPRPNQWPRP	0.724
RRIRARPPRLPRPRPRPNRAPRP	-0.0385
RRIRARPPRLPRPRPRPNSPPRP	-0.138
RRIRARPPRLPRPRPRPNTLPRP	-0.202
RRIRARPPRLPRPRPRPNTRPRP	0.12
RRIRARPPRLPRPRPRPNVWPRP	0.537
RRIRARPPRLPRPRPRPNWTPRP	0.0524
RRIRARPPRLPRPRPRPNYMPRP	-0.2
RRIRARPPRLPRPRPRPNYVPRP	-0.35
RRIRARPPRLPRPRPRPPAMPRP	0.394
RRIRARPPRLPRPRPRPPCRPRP	0.517
RRIRARPPRLPRPRPRPPCYPRP	0.146
RRIRARPPRLPRPRPRPPEHPRP	0.606
RRIRARPPRLPRPRPRPPELPRP	0.947
RRIRARPPRLPRPRPRPPFGPRP	0.436
RRIRARPPRLPRPRPRPPFIPRP	-0.103
RRIRARPPRLPRPRPRPPFMPRP	0.376
RRIRARPPRLPRPRPRPPGFPRP	0.59
RRIRARPPRLPRPRPRPPHVPRP	0.805
RRIRARPPRLPRPRPRPPIGPRP	0.287
RRIRARPPRLPRPRPRPPLQPRP	0.557
RRIRARPPRLPRPRPRPPLSPRP	0.549
RRIRARPPRLPRPRPRPPPIPRP	1
RRIRARPPRLPRPRPRPPQLPRP	0.753

Sequence	shrunken log2 fold change
RRIRARPPRLPRPRPRPPQTPRP	0.9
RRIRARPPRLPRPRPRPPSMPRP	0.425
RRIRARPPRLPRPRPRPPSNPRP	0.195
RRIRARPPRLPRPRPRPPVMPRP	0.395
RRIRARPPRLPRPRPRPPYMPRP	-0.467
RRIRARPPRLPRPRPRPPYRPRP	-0.0935
RRIRARPPRLPRPRPRPPYTPRP	0.16
RRIRARPPRLPRPRPRPQCIPRP	-0.125
RRIRARPPRLPRPRPRPQDCPRP	0.0638
RRIRARPPRLPRPRPRPQDDPRP	0.274
RRIRARPPRLPRPRPRPQDFPRP	-0.0122
RRIRARPPRLPRPRPRPQEIPRP	0.107
RRIRARPPRLPRPRPRPQELPRP	0.0199
RRIRARPPRLPRPRPRPQFKPRP	-0.0331
RRIRARPPRLPRPRPRPQIPPRP	-0.346
RRIRARPPRLPRPRPRPQLCPRP	0.249
RRIRARPPRLPRPRPRPQNPPRP	0.0626
RRIRARPPRLPRPRPRPQQYPRP	-0.203
RRIRARPPRLPRPRPRPQRGPRP	0.468
RRIRARPPRLPRPRPRPQRVPRP	-0.188
RRIRARPPRLPRPRPRPQSKPRP	0.0474
RRIRARPPRLPRPRPRPQTPPRP	0.456
RRIRARPPRLPRPRPRPQVVPRP	-0.0726
RRIRARPPRLPRPRPRPQWEPRP	0.196
RRIRARPPRLPRPRPRPQWIPRP	-0.0374

Sequence	shrunken log2 fold change
RRIRARPPRLPRPRPRPQYDPRP	-0.018
RRIRARPPRLPRPRPRPQYTPRP	-0.496
RRIRARPPRLPRPRPRPRCVPRP	0.347
RRIRARPPRLPRPRPRPRENPRP	1.06
RRIRARPPRLPRPRPRPRFYPRP	-0.0395
RRIRARPPRLPRPRPRPRGAPRP	0.961
RRIRARPPRLPRPRPRPRGCPRP	0.822
RRIRARPPRLPRPRPRPRGKPRP	0.376
RRIRARPPRLPRPRPRPRGSPRP	0.708
RRIRARPPRLPRPRPRPRHTPRP	0.419
RRIRARPPRLPRPRPRPRIWPRP	0.164
RRIRARPPRLPRPRPRPRKVPRP	0.615
RRIRARPPRLPRPRPRPRKYPRP	0.0773
RRIRARPPRLPRPRPRPRLHPRP	0.376
RRIRARPPRLPRPRPRPRMFPRP	0.345
RRIRARPPRLPRPRPRPRMLPRP	0.395
RRIRARPPRLPRPRPRPRNWPRP	0.388
RRIRARPPRLPRPRPRPRPPPRP	1.26
RRIRARPPRLPRPRPRPRPSPRP	0.622
RRIRARPPRLPRPRPRPRRDPRP	0.656
RRIRARPPRLPRPRPRPRSRPRP	0.757
RRIRARPPRLPRPRPRPRTAPRP	0.844
RRIRARPPRLPRPRPRPRTKPRP	0.565
RRIRARPPRLPRPRPRPRVEPRP	0.187
RRIRARPPRLPRPRPRPRVFPRP	0.704

Sequence	shrunken log2 fold change
RRIRARPPRLPRPRPRPRVRPRP	0.567
RRIRARPPRLPRPRPRPRWHPRP	0.323
RRIRARPPRLPRPRPRPRWMPRP	0.451
RRIRARPPRLPRPRPRPRWVPRP	0.267
RRIRARPPRLPRPRPRPRWWPRP	0.199
RRIRARPPRLPRPRPRPRYLPRP	-0.351
RRIRARPPRLPRPRPRPSAYPRP	0.0396
RRIRARPPRLPRPRPRPSECPRP	0.145
RRIRARPPRLPRPRPRPSENPRP	0.182
RRIRARPPRLPRPRPRPSGRPRP	0.0751
RRIRARPPRLPRPRPRPSHTPRP	0.162
RRIRARPPRLPRPRPRPSHWPRP	-0.175
RRIRARPPRLPRPRPRPSIRPRP	-0.0712
RRIRARPPRLPRPRPRPSIYPRP	-0.404
RRIRARPPRLPRPRPRPSKVPRP	-0.0951
RRIRARPPRLPRPRPRPSMDPRP	1.4
RRIRARPPRLPRPRPRPSMPPRP	-0.176
RRIRARPPRLPRPRPRPSNCPRP	-0.285
RRIRARPPRLPRPRPRPSNKPRP	-0.31
RRIRARPPRLPRPRPRPSNPPRP	-0.0677
RRIRARPPRLPRPRPRPSPSPRP	0.52
RRIRARPPRLPRPRPRPSQIPRP	0.0409
RRIRARPPRLPRPRPRPSTDPRP	1.08
RRIRARPPRLPRPRPRPSTKPRP	0.076
RRIRARPPRLPRPRPRPSVFPRP	0.461
